Test results published in patent US11266616B2, “Compositions and methods for inhibiting kinase activity” (BRANDEIS UNIVERSITY, priority 2016, dated 2022).
Entries after “also recorded” stand apart in the source; their conditions may differ.

T1: dephosphorylated Aurora A kinase (Homo sapiens, UniProt O14965)
T1 construct: Codon-optimized Aurora A^122-403 in pET28a and untagged λPP in T7-7 plasmid were co-transformed in BL21(DE3) cells; inferred from pET28a and the NiNTA column) (cleaved yes); made in house; host or cells: E. coli BL21(DE3), co-expressed with lambda protein phosphatase
T1 sequence (O14965 122-403): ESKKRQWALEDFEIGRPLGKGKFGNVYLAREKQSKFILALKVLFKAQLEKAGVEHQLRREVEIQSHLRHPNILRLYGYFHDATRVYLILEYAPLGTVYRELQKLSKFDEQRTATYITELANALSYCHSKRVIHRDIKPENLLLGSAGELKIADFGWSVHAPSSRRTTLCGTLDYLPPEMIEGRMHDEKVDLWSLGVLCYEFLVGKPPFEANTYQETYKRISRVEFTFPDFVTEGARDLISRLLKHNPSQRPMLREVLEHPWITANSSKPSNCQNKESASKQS

T2: Aurora A kinase (Homo sapiens, UniProt O14965)
T2 construct: Codon-optimized Aurora A^122-403 in pET28a and untagged λPP in T7-7 plasmid were co-transformed in BL21(DE3) cells; inferred from pET28a and the NiNTA column) (cleaved yes); made in house; host or cells: E. coli BL21(DE3)
T2 sequence (O14965 122-403): T1 sequence (O14965 122-403)

B1: Mb56: monobody binding allosteric site of Aurora A kinase, SEQ ID NO: 3; inhibitor (protein, listed as Homo sapiens)
chain: GSVSSVPTKLEVVAATPTSLLISWDAMSDWYYWVDYYRITYGETGGNSPVQEFTVPGSYSTATISGLKPGVDYTITVYASDDVWGDYSPISINYRT
B2: Mb44: monobody binding allosteric site of Aurora A kinase, SEQ ID NO: 1; inhibitor (protein, listed as Homo sapiens)
chain: GSVSSVPTKLEVVAATPTSLLISWDAPAVTVDFYVITYGETGGYSYPWQEFEVPGSKSTATISGLKPGVDYTITVYADYGQYFYSPISINYRT
B3: Mb60: monobody binding allosteric site of Aurora A kinase, SEQ ID NO: 4; inhibitor (protein, listed as Homo sapiens)
chain: GSVSSVPTKLEVVAATPTSLLISWDAPAVTVVHYVITYGETGGNSPVQEFTVPGSKSTATISGLKPGVDYTITVYAIDFYWGSYSPISINYRT
B4: sGFP-Mb60: fusion polypeptide of supercharged GFP and inhibiting monobody Mb60 (aka Mb2) (protein)
chain: B3 chain
modifications: left off: large carriers
B5: Mb51: monobody binding allosteric site of Aurora A kinase, SEQ ID NO: 2; inhibitor (protein, listed as Homo sapiens)
chain: GSVSSVPTKLEVVAATPTSLLISWDAKPMSYEPVYYYRITYGETGGNSPVQEFTVPGYYSTATISGLKPGVDYTITVYADSMSSYYYSPISINYRT
B6: Mb6: monobody binding allosteric site of Aurora A kinase, SEQ ID NO: 10; activity neutral (protein, listed as Homo sapiens)
chain: GSVSSVPTKLEVVAATPTSLLISWDAFGHQYEPVYYYRITYGETGGNSPVQEFTVPGYYSTATISGLKPGVDYTITVYAWYVDGSYSSPISINYRT
B7: sGFP-Mb6: fusion polypeptide of supercharged GFP and activity-neutral monobody Mb6 (protein)
chain: B6 chain
modifications: left off: large carriers
B8: Mb54: monobody binding allosteric site (PIF pocket) of Aurora A kinase, SEQ ID NO: 11; activator (protein, listed as Homo sapiens)
chain: GSVSSVPTKLEVVAATPTSLLISWDAQTYQMYDYVSYYRITYGETGGNSPVQEFTVPGYYSTATISGLKPGVDYTITVYAEGYYSSYSPISINYRT
B9: sGFP-Mb54: fusion polypeptide of supercharged GFP and activating monobody Mb54 (aka Mb1) (protein)
chain: B8 chain
modifications: left off: large carriers

Columns and labels:
[1] = target: T1, dephosphorylated Aurora A kinase; assay: Isothermal titration calorimetry (ITC) binding to dephosphorylated Aurora A kinase; conditions: for binding affinity of monobody to dephosphorylated Aurora A kinase / binding affinity of sGFP-monobody fusion to Aurora A kinase compared with the monobody: ITC; for binding affinity of monobody to dephosphorylated Aurora A kinase: FIG. 8; for change of binding affinity of monobody to dephosphorylated Aurora A kinase: Aurora A pre-saturated with danusertib, FIGS. 11A-11B; for binding affinity of sGFP-monobody fusion to Aurora A kinase compared with the monobody: FIGS. 17B, 18D
Method: Titrations were carried out using Nano ITC isothermal titration calorimeter (TA Instruments) and analyzed via the NanoAnalyze software using the independent fit model. Injectant was added in 1 μl volume, every 180 s, with a constant stirring speed at 350 rpm and at 25° C. Prior to ITC titration, both protein and TPX2 or monobody were dialyzed/resuspended in ITC buffer (20 mM TrisHCl, 200 mM NaCl, 3% (vol/vol) glycerol, 1 mM TCEP, pH 7.50).

Aurora A kinase = target: T2, Aurora A kinase; assay: In vitro kinase assay (HPLC-based / ATP/NADH-coupled) of peptide substrate phosphorylation; format: biochemical; conditions: for effect of monobody on Aurora A kinase activity: Lats2 peptide substrate, FIG. 9
Method: Aurora A, either phosphorylated/dephosphorylated wild type or mutant protein, was mixed with either AP ([…]) (SEQ ID NO: 5), Kemptide (LRRASLG) (SEQ ID NO: 6), or Lats2 ([…]) (SEQ ID NO: 7), in the absence or presence of 50 μM TPX2 in kinase buffer (20 mM TrisHCl, 200 mM NaCl, 3% [vol/vol] glycerol, 20 mM MgCl2, 1 mM TCEP, pH 7.50). These substrates comprise the consensus sequence for Aurora A ([R/K/N]—R—X—[S/T]-B where B is any hydrophobic residue with the exception of Pro) (Ferrari et al., 2005, Biochem. J., 390(Pt 1):293-302; Ohashi et al., 2006, Oncogene, 25:7691-7702; Sardon et al., 2010, EMBO Reports, 11:977-984). Peptides were ordered through Genscript. For HPLC-based activity assays the following protocol was used. The reaction was initiated with the addition of 5 mM ATP. Then 5 μl time points were collected, resuspended in 10 μl 6% (vol/vol) trichloroacetic acid (in water) to quench the reaction, and neutralized with 50 μl 100 mM KH2PO4, pH 8.0 to provide the appropriate pH for nucleotide separation. The mixture was then passed through a 0.22 μm SpinX column to remove any protein precipitation. Reverse phase-high performance liquid chromatography (RP-HPLC) and an ACE 5 C18-AR, 100 Å pore size column, were used to separate nucleotides as well as peptides. For nucleotide runs, 2 μl of the aforementioned mixture was sufficient for analysis, whereas for the peptide runs the optimal injection volume was 20 μl. Nucleotide runs were routinely performed to ensure no unproductive hydrolysis was occurring during the experiment. An isocratic elution run in 100 mM KH2PO4, pH 6.0 was performed for this purpose. For the peptide runs, a gradient of 0-30% of elution buffer lasting 10 min at 0.4 mL/min was sufficient to separate phosphorylated from non-phosphorylated species. The running buffer was 0.1% TFA (vol/vol) in water, while the elution buffer was 100% acetonitrile. Lastly, to ensure full saturation of Aurora A by TPX2 and test these proteins were well behaved, a dose-dependence curve of the effect of TPX2 on Aurora A was obtained.
For ATP/NADH-coupled assay-based reaction, the following protocol was used. Phosphorylation of different concentrations of Lats2 peptide was monitored using the ATP/NADH coupled assay in a 96-well plate format. Reactions were carried in the presence of 1 μM dephosphorylated or 0.05 μM phosphorylated Aurora and 5 mM ATP in assay buffer (20 mM TrisHCl, 200 mM NaCl, 20 mM MgCl2, 10% (v/v) glycerol, 1 mM TCEP, pH 7.50) at 25° C.

HEK293 cells = assay: HEK293 viability (luminescence) after 7 hours of treatment; format: cell-based, human; conditions: various monobody concentrations, FIG. 17E
Description: (§1) FIGS. 17A-17F present a set of plots, images and graphs showing data gathered using cultured HEK293 cells. In FIGS. 17A-17F, alternative names of the monobodies described herein are used. […] The error bars represent the standard error for the estimate of Kd and are a measure of the goodness of fit of the data. […] As observed in FIG. 17D, sGFP-Mb60's optimal cell delivery occurs after 7 hrs of exposure. FIG. 17E presents a bar graph of luminescence (mean±SEM, n=4 measurements/dataset) as a measure of HEK293 viability after cells were treated for 7 hours under the conditions indicated below the x-axis. Asterisks indicate significance levels of between-conditions t-test comparisons of the different conditions with liposome-treated control; […]; **=p≤0.01; ***=p≤0.001. […] Cells were quadruple stained to visualize DNA/sGFP(−Mbs)/Aurora A kinase/TPX2. […] In the images, DNA stained blue; GFP stained green; Aurora A kinase stained red; and […].

[2] = test system: Aurora A kinase in HEK293 cells; assay: Immunofluorescence co-localization with Aurora A kinase in HEK293 cells; format: cell-based, human; conditions: 7 hours after delivery, FIG. 17F
Description: as §1

Row | Molecule | binding affinity of monobody to dephosphorylated Aurora A kinase [1] | Activity of Monobody on Aurora A kinase (Aurora A kinase) | effect of monobody on Aurora A kinase activity (Aurora A kinase) | change of binding affinity of monobody to dephosphorylated Aurora A kinase [1] | binding affinity of sGFP-monobody fusion to Aurora A kinase compared with the monobody [1] | inhibition of Aurora A kinase activity by sGFP fusion compared with the monobody (Aurora A kinase; FIG. 17C) | cell death / viability of HEK293 cells (HEK293 cells) | co-localization with Aurora A kinase [2]
1 | B1 | low nanomolar affinities | inhibitor | strongly inhibit | – | – | – | – | –
2 | B2 | low μM levels | inhibitor | strongly inhibit | – | – | – | – | –
3 | B3 | low μM levels | inhibitor | inhibitor; also recorded: inhibited; also recorded: strong inhibition | tightened | – | – | – | –
4 | B4 | – | – | – | – | comparable; also recorded: closely mimicked the binding | same extent as Mb60 | statistically significant cell death | strong co-localization
5 | B5 | low nanomolar affinities | inhibitor | strongly inhibit | – | – | – | – | –
6 | B6 | low nM affinity; also recorded: low nanomolar affinities | neutral | weakest regulator; also recorded: did not significantly modulate; also recorded: neutral activity | – | – | – | – | –
7 | B7 | – | – | – | – | – | – | statistically significant cell death | strong co-localization
8 | B8 | low nanomolar affinities | activator | strongest activator; also recorded: activate; also recorded: activation | weakened | – | – | – | –
9 | B9 | – | – | – | – | closely mimicked the binding | – | did not cause cell death | strong co-localization
